For data set [1], the target named is T1, TIA1 full-length (fl TIA1) (Mus musculus, UniProt P52912 1-386).
T1 sequence: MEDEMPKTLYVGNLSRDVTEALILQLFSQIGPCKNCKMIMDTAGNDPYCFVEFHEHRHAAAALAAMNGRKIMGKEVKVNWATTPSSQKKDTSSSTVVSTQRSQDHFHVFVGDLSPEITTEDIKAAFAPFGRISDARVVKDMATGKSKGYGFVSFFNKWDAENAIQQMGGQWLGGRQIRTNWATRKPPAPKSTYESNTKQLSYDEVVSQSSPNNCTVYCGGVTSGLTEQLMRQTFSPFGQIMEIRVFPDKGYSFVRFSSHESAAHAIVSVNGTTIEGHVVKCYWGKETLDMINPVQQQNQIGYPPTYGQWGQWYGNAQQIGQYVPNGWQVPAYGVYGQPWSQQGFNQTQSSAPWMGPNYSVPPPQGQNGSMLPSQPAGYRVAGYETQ
Put plainly: solid-state NMR.

Data set [2] has as its target T1, TIA1 full-length (fl TIA1). As to the kind of experiment: ITC.

On to TTTTTACTCCAAAAAAAATTTTTACTCCAAAAAAAATTTTTACTCC (ssDNA) [(TC1-A8)2-TC1], for which the binding result in data set [1] is listed as “binds”.
TTTTTACTCC (ssDNA) [TC1] displayed a Kd in data set [2] of 263 ± 60 nM.

These data come from doi:10.1101/2023.01.25.525508.
